Results reported in the supplement of paper PMC6755084.

B1: F1*; the commonest letter at each place (parent)
chain: GAGACCGCAACTGAAAAGTTGTTATCACTTGTCGTAAGACACTTTGGATGGGTTGAAGTTCTGCACGTAGAAGCAAAAGGC

Variants of: B1
Assay: fraction ligated after 30 min (ligated reads / total reads); higher = more ligase activity
Conditions: with F1*sub RNA substrate (template-directed ligation), 42 °C
Description: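 Chip-synthesised pool of F1* ligase ribozyme variants (all single and double substitutions, single, double and triple deletions in the catalytic core and GAA bulge, plus designed variants) was transcribed with T7 and reacted as a pool with excess substrate F1*sub for 30 min at 42 C in 50 mM EPPS pH 8.5, 25 mM MgCl2. Ligated and unligated bands were separated by PAGE, barcoded by RT and deep sequenced; fraction ligated = ligated reads / total reads per variant, relative activity = FL / FL of wild type (0.826). Sequences are the DNA template of the ribozyme.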

Variant | fraction ligated
A24G G47T | 0.0352
A24G G47A | 0.684
A24G G47C | 0.0125
A24G T35C | 0.776
A24G T35A | 0.786
A24G T35G | 0.774
A24T C26A | 0.217
A24T C26T | 0.124
A24T C26G | 0.201
A24G T25A | 0.697
A24G T25C | 0.765
A24G T25G | 0.368
A24C A27C | 0.557
A24C A27T | 0.668
A24C A27G | 0.692
A24C A39C | 0.131
A24C A39G | 0.774
A24C A39T | 0.197
A24G C42A | 0.796
A24G C42T | 0.802
A24G C42G | 0.795
T23G T49G | 0.761
T23G T49A | 0.766
T23G T49C | 0.748

Variant | fraction ligated
T23G G55T | 0.826
T23G G55A | 0.832
T23G G55C | 0.809
A24C A56C | 0.0226
A24C A56T | 0.0488
A24C A56G | 0.0302
A24C T30A | 0.414
A24C T30C | 0.168
A24C T30G | 0.57
A24G C26G | 0.268
A24G C26A | 0.711
A24G C26T | 0.728
A24T T32C | 0.243
A24T T32A | 0.153
A24T T32G | 0.372
A24T A39T | 0.619
A24T A39G | 0.793
A24T A39C | 0.636
A24C G34C | 0.185
A24C G34T | 0.648
A24C G34A | 0.727
A24C A57G | 0.633
A24C A57T | 0.55
A24C A57C | 0.368

Variant | fraction ligated
A24G A48G | 0.762
A24G A48C | 0.729
A24G A48T | 0.0442
A24G T29C | 0.741
A24G T29G | 0.811
A24G T29A | 0.807
A24T C40G | 0.582
A24T C40T | 0.769
A24T C40A | 0.34
A24C | 0.747
A24G | 0.777
A24T | 0.778
A24T T29A | 0.789
A24T T29G | 0.716
A24T T29C | 0.6
A24C C26G | 0.419
A24C C26A | 0.417
A24C C26T | 0.0218
A24G T49C | 0.731
A24G T49G | 0.731
A24G T49A | 0.742
A24G T45G | 0.0477
A24G T45C | 0.0441
A24G T45A | 0.22

Variant | fraction ligated
A24T T35G | 0.772
A24T T35A | 0.808
A24T T35C | 0.788
T25A A48C | 0.752
T25A A48T | 0.822
T25A A48G | 0.459
A24T T25C | 0.779
A24T T25G | 0.722
A24T T25A | 0.735
T25A C26A | 0.0968
T25A C26G | 0.0644
T25A C26T | 0.129
A24T G38A | 0.205
A24T G38T | 0.745
A24T G38C | 0.685
A24T G55T | 0.18
A24T G55C | 0.107
A24T G55A | 0.532
T23G T30A | 0.808
T23G T30C | 0.765
T23G T30G | 0.8
A24G G55T | 0.629
A24G G55C | 0.18
A24G G55A | 0.685

Variant | fraction ligated
A24C G47T | 0.0249
A24C G47C | 0.00476
A24C G47A | 0.806
A24C C33A | 0.147
A24C C33T | 0.697
A24C C33G | 0.4
T23G T29A | 0.824
T23G T29C | 0.784
T23G T29G | 0.797
A24C T32C | 0.062
A24C T32A | 0.0611
A24C T32G | 0.144
A24T T45C | 0.0212
A24T T45A | 0.0698
A24T T45G | 0.0472
T23G G47T | 0.346
T23G G47A | 0.79
T23G G47C | 0.0263
A24C T25G | 0.787
A24C T25A | 0.793
A24C T25C | 0.793
A24G G31A | 0.202
A24G G31T | 0.331
A24G G31C | 0.181

Variant | fraction ligated
T23G T45C | 0.781
T23G T45G | 0.523
T23G T45A | 0.795
A24T A56C | 0.0299
A24T A56T | 0.0614
A24T A56G | 0.0306
A24T A36G | 0.519
A24T A36T | 0.794
A24T A36C | 0.805
A24G T44A | 0.817
A24G T44G | 0.791
A24G T44C | 0.763
T25A A37G | 0.772
T25A A37T | 0.776
T25A A37C | 0.744
T25A A57T | 0.252
T25A A57C | 0.199
T25A A57G | 0.345
A24C T35C | 0.764
A24C T35G | 0.759
A24C T35A | 0.782
A24C T44G | 0.292
A24C T44A | 0.759
A24C T44C | 0.563

Variant | fraction ligated
A24C T49G | 0.806
A24C T49A | 0.805
A24C T49C | 0.731
A24T G50T | 0.535
A24T G50A | 0.265
A24T G50C | 0.295
T25A A39T | 0.255
T25A A39G | 0.751
T25A A39C | 0.223
T23G T43G | 0.821
T23G T43C | 0.747
T23G T43A | 0.811
A24T C42A | 0.743
A24T C42T | 0.792
A24T C42G | 0.769
A24G C40G | 0.802
A24G C40T | 0.84
A24G C40A | 0.731
A24G T30A | 0.745
A24G T30C | 0.693
A24G T30G | 0.79
A24C A37T | 0.754
A24C A37C | 0.716
A24C A37G | 0.626

Variant | fraction ligated
A24G T43C | 0.694
A24G T43A | 0.765
A24G T43G | 0.694
T23G T32A | 0.858
T23G T32C | 0.75
T23G T32G | 0.842
T25A A41G | 0.419
T25A A41C | 0.0344
T25A A41T | 0.587
A24C G55C | 0.158
A24C G55T | 0.0793
A24C G55A | 0.649
T23G T35C | 0.827
T23G T35A | 0.834
T23G T35G | 0.86
A24G A37C | 0.796
A24G A37T | 0.764
A24G A37G | 0.852
A24C C42G | 0.775
A24C C42T | 0.779
A24C C42A | 0.779
T23G G38C | 0.808
T23G G38T | 0.81
A24G A39T | 0.664

Variant | fraction ligated
A24G A39C | 0.504
A24G A39G | 0.827
T25A C28A | 0.396
T25A A56G | 0.0269
T25A A56T | 0.0445
T25A A56C | 0.0125
A24C A48G | 0.614
A24C A48T | 0.0426
A24C A48C | 0.186
A24G G38A | 0.752
A24G G38T | 0.745
A24G G38C | 0.695
T23G G50C | 0.401
T23G G50A | 0.633
T23G G50T | 0.728
A24C G46A | 0.335
A24C G46C | 0.043
A24C G46T | 0.0441
A24G A41C | 0.034
A24G A41T | 0.701
A24G A41G | 0.691
T25A A27T | 0.371
T25A A27C | 0.266
T25A A27G | 0.372

Variant | fraction ligated
A24C A41C | 0.00606
A24C A41G | 0.608
A24C A41T | 0.614
A24C G50C | 0.532
A24C G50A | 0.431
A24C G50T | 0.646
A24T T49C | 0.694
A24T T49G | 0.783
A24T T49A | 0.8
A24T A48T | 0.00859
A24T A48C | 0.499
A24T A48G | 0.214
A24C A36T | 0.767
A24C A36G | 0.0223
A24C A36C | 0.763
A24C C40A | 0.165
A24C C40G | 0.348
A24C C40T | 0.707
A24G C28A | 0.719
A24G C28G | 0.701
A24G C28T | 0.743
A24G G34C | 0.73
A24G G34T | 0.729
A24G G34A | 0.763

Variant | fraction ligated
A24T T30G | 0.768
A24T T30C | 0.297
A24T T30A | 0.67
T23G T44G | 0.86
T23G T44C | 0.802
T23G T44A | 0.842
A24G A57G | 0.762
A24G A57C | 0.632
A24G A57T | 0.728
A24T T44A | 0.772
A24T T44G | 0.196
A24T T44C | 0.778
A24G C33T | 0.832
A24G C33G | 0.785
A24G C33A | 0.746
A24G G50A | 0.449
A24G G50C | 0.257
A24G G50T | 0.491
T23G T25C | 0.781
T23G T25G | 0.738
T23G T25A | 0.78
T25A | 0.749
T25A A36C | 0.684
T25A A36G | 0.766

Variant | fraction ligated
T25A A36T | 0.752
A24C G31T | 0.0308
A24C G31C | 0.038
A24C G31A | 0.0336
A24T T43C | 0.621
A24T T43G | 0.708
A24T T43A | 0.678
A24T G46A | 0.553
A24T G46T | 0.2
A24T G46C | 0.313
A24C T29A | 0.747
A24C T29G | 0.766
A24C T29C | 0.28
T23G G46T | 0.759
T23G G46A | 0.809
T23G G46C | 0.803
A24C T43C | 0.231
A24C T43A | 0.625
A24C T43G | 0.792
A24T A41G | 0.72
A24T A41T | 0.785
A24T A41C | 0.184
A24T A27T | 0.712
A24T A27G | 0.748

Variant | fraction ligated
A24T A27C | 0.737
A24G A27G | 0.701
A24G A27C | 0.776
A24G A27T | 0.126
A24T G47A | 0.797
A24T G47C | 0.0331
A24T G47T | 0.108
A24G A56G | 0.0845
A24G A56T | 0.0729
A24G A56C | 0.0669
A24G G46T | 0.621
A24G G46A | 0.803
A24G G46C | 0.765
A24T G31T | 0.0661
A24T G31C | 0.0424
A24T G31A | 0.0391
A24T G34C | 0.557
A24T G34A | 0.789
A24T G34T | 0.76
A24T C28A | 0.492
A24T C28G | 0.373
A24T C28T | 0.794
A24C G38A | 0.508
A24C G38T | 0.468

Variant | fraction ligated
A24C G38C | 0.274
A24C T45C | 0.0358
A24C T45G | 0.0118
A24C T45A | 0.152
A24G A36T | 0.789
A24G A36C | 0.833
A24G A36G | 0.813
A24T C33A | 0.214
A24T C33G | 0.336
A24T C33T | 0.742
A24T A37T | 0.786
A24T A37C | 0.77
A24T A37G | 0.792
A24G T32A | 0.591
A24G T32C | 0.369
A24G T32G | 0.589
A24C C28T | 0.786
A24C C28A | 0.727
A24C C28G | 0.742
A24T A57T | 0.503
A24T A57G | 0.729
A24T A57C | 0.386
